{"source": "paper PMC5300155", "about": "“Biochemical and biophysical investigations of the interaction between human glucokinase and pro-apoptotic BAD” (PLoS ONE, 2017)", "molecules": {"B1": {"name": "S155D BAD variant: phosphomimic murine BAD variant, ref 9 (protein, UniProt Q61337 1-204, looked up, variant S155D)", "Bcl2-associated agonist of …": "MGTPKQPSLAPAHALGLRKSDPGIRSLGSDAGGRRWRPAAQSMFQIPEFEPSEQEDASATDRGLGPSLTEDQPGPYLAPGLLGSNIHQQGRAATNSHHGGAGAMETRSRHSSYPAGTEEDEGMEEELSPFRGRSRSAPPNLWAAQRYGRELRRMDDEFEGSFKGLPRPKSAGTATQMRQSAGWTRIIQSWWDRNLGKGGSTPSQ"}, "B2": {"name": "FITC-labeled 21-residue peptide containing the BH3 domain of BAD (peptide)", "peptide": "NLWAAQRYGRELRRMSDK(FITC′)FVD", "notes": "BH3 domain of BAD, human; also called f-BH3; fluorescent BH3 peptide; source: synthetic peptide (Peptide2.0, >95%)"}, "B3": {"name": "Bcl-xL: recombinant human Bcl-xL Δ45–84, Δ210–233 variant (protein)", "chain": "MSQSNRELVVDFLSYKLSQKGYSWSQFSDVEENRTEAPEGTESEAVKQALREAGDEFELRYRRAFSDLTSQLHITPGTAYQSFEQVVNELFRDGVNWGRIVAFFSFGGALCVESVDKEMQVLVSRIAAWMATYLNDHLEPWIQENGGWDTFVELYGNNAAAESRKGQER", "modifications": "left off: His tag (from the nickel affinity chromatography), end not stated, state not stated", "notes": "recombinant human Bcl-xL Δ45–84, Δ210–233 variant"}}, "key": {"[1]": {"biological_target": "recombinant human pancreatic glucokinase (human) (UniProt P35557)"}, "[2]": {"biological_target": "recombinant human Bcl-xL, Δ45–84, Δ210–233 variant (human) (UniProt Q07817)", "assay": "fluorescence polarisation; competition: 200 nM f-BH3, 50 nM Bcl-xL, BAD forms varied 0–50 μM; room temperature"}, "[3]": {"biological_target": "recombinant human BAD-GST fusion polypeptide (human) (UniProt Q92934)", "assay": "AUC; sedimentation velocity; single proteins or 1:1 molar mixtures incubated on ice 30 min; BAD buffer pH 8.5; 20°C"}, "[4]": {"biological_target": "recombinant human BAD-GST fusion polypeptide (human) (UniProt Q92934)", "assay": "SEC; HiPrep 16/60 Sephacryl S-200 HR, calibrated; single proteins or equimolar mixtures incubated on ice 30 min; BAD buffer pH 8.5; 4°C"}, "GST": {"biological_target": "GST", "assay": "AUC; sedimentation velocity; single proteins or 1:1 molar mixtures incubated on ice 30 min; BAD buffer pH 8.5; 20°C"}, "[5]": {"biological_target": "recombinant human BAD-GST fusion polypeptide (human) (UniProt Q92934)", "assay": "ITC; Bcl-xL (100 μM) titrated in 4 μL injections into BAD-GST (10–18 μM) in the cell; 25°C; BAD buffer (0.1 M Tris, 0.1 M KCl, 0.5 M arginine, 2.5 mM CHAPS, 5 mM TCEP, 10% glycerol, pH 8.5)"}, "[6]": {"biological_target": "recombinant human pancreatic glucokinase (human) (UniProt P35557)", "remark": "listed apart in the source"}, "[7]": {"biological_target": "recombinant human pancreatic glucokinase (human) (UniProt P35557)", "remark": "listed apart in the source"}, "BAD-knockout hepatocytes": {"system": "BAD-knockout hepatocytes", "conditions": "ref [9]; cited from earlier work", "text": "Phosphorylation of BAD modulates its participation in apoptosis and glucose metabolism. High glucose concentrations stimulate BAD phosphorylation at three serine residues, resulting in reduced pro-apoptotic activity. In particular, phosphorylation at Ser155, within the BH3 domain of murine BAD, prevents interaction with Bcl-xL, thereby quenching BAD’s apoptotic activity. […] Moreover, i ..."}, "[8]": {"biological_target": "T1, recombinant human Bcl-xL, Δ45–84, Δ210–233 variant (human, UniProt Q07817-1 1-209, Δ45–84)", "T1 construct": "Bcl-xL, human; loop 45-84 deleted and C-terminal residues 210-233 lacking; also called soluble, recombinant Bcl-xL", "assay": "fluorescence polarisation; 15 nM FITC peptide, Bcl-xL varied 0–2.25 μM; BAD buffer mixed with phosphate assay buffer pH 7.4; room temperature", "conditions": "both partners purified"}, "Bcl-xL": {"biological_target": "T2, Bcl-xL (Homo sapiens, UniProt Q07817, DEL45-84)", "T2 construct": "made in house", "assay": "Analytical ultracentrifugation sedimentation velocity of 1:1 mixture BAD-GST and Bcl-xL", "assay_type": "binding", "conditions": "1:1 mixture of BAD-GST and Bcl-xL, 20°C, 50,000 x g, BAD buffer pH 8.5", "description": "Sedimentation velocity experiments were conducted with an Optima XLI Ultracentrifuge (Beckman Coulter) using a four-hole rotor with three 420 μL samples in standard double-sector Epon centerpieces equipped with sapphire windows. Absorbance and interference data were collected simultaneously. Size-exclusion purified proteins were concentrated to OD280 nm = 0.3–1.0 prior to centrifugation. For complex formation, proteins were mixed in a 1:1 molar ratio in BAD buffer (0.1 M Tris, 0.1 M KCl, 0.5 M arginine, 2.5 mM CHAPS, 5 mM TCEP, 10% glycerol, pH 8.5) and incubated on ice 30 min prior to the start of the experiment. Experiments were carried out at 20°C and 50,000 x g. Data were analyzed with Ultrascan III software using a minimum of 70 scans per sample for analysis. Van Holde-Weischet analysis was performed to obtain S20,W values."}, "[9]": {"assay": "Circular dichroism spectroscopy (secondary structure)", "assay_type": "physicochemical", "conditions": "far UV CD, 25°C, pH 7.8, 3–15 μM, CDPro", "description": "Proteins were dialyzed overnight into potassium phosphate buffer (50 mM, pH 7.8) containing KCl (50 mM), glycerol (5% v/v), and TCEP (4 mM). CD spectra were recorded on an AVIV 202 CD spectrometer at 25°C with protein concentrations ranging from 3–15 μM. Spectra were recorded from 200–260 nm in 10 mm pathlength cuvettes using a 1 nm step resolution and 3 s integration time. Three scans were recorded per sample, averaged, and baseline subtracted with appropriate buffer controls. CD signals were converted to molar ellipticity and deconvoluted using CDPro Software."}}, "note": "Primed or numbered codes have the meaning given here. No end group written: not given here. FITC′ = fluorescein isothiocyanate label"}
{"molecule": "recombinant human BAD-GST fusion polypeptide (from UniProt Q92934 1-168) (natural protein)", "values": [{"measurement": "percent increase in GCK rate, glucose 0.5–1.0 mM, largest at 0.8 mM glucose with BAD-GST ≥ 2 μM", "setting": "[1]", "value": 10, "unit": "%"}, {"measurement": "IC50", "setting": "[2]", "value": 130, "unit": "nM"}, {"measurement": "stoichiometry N", "setting": "[3]", "value": 2}, {"measurement": "stoichiometry N", "setting": "[4]", "value": 2}]}
{"molecule": "GST (natural protein)", "values": [{"measurement": "stoichiometry N", "setting": "GST", "value": 2}]}
{"molecule": "recombinant human Bcl-xL, Δ45–84, Δ210–233 variant (from UniProt Q07817-1 1-209) (domain or fragment)", "values": [{"measurement": "stoichiometry N (Bcl-xL per BAD-GST dimer)", "setting": "[3]", "value": 2}, {"measurement": "Kd", "setting": "[5]", "value": 7, "unit": "nM"}]}
{"molecule": "BAD-GST phosphorylated in vitro with PKAc (from UniProt Q92934 1-168) (natural protein)", "values": [{"measurement": "increase in GCK activity over unmodified BAD-GST at 1.0 mM glucose", "setting": "[6]", "value": 5, "unit": "%"}, {"measurement": "increase in GCK activity at glucose below the K0.5 value with phosphorylated BAD (> 2 μM)", "setting": "[7]", "value": 15, "unit": "%"}, {"measurement": "IC50", "setting": "[2]", "value": 1600, "unit": "nM"}]}
{"molecule": "B1", "values": [{"measurement": "Effect on GCK activity in hepatocytes", "setting": "BAD-knockout hepatocytes", "value": "stimulates GCK activity in hepatocytes"}, {"measurement": "Restoration of normal glycolytic metabolism in BAD-knockout hepatocytes", "setting": "BAD-knockout hepatocytes", "value": "normal glycolytic metabolism can be restored"}]}
{"molecule": "B2", "values": [{"measurement": "Kd", "setting": "[8]", "value": 180, "unit": "nM"}]}
{"molecule": "B3", "values": [{"measurement": "Sedimentation coefficient", "setting": "Bcl-xL", "value": 1.3}, {"measurement": "Random coil content", "setting": "[9]", "value": "roughly 30%"}, {"measurement": "α-helical content", "setting": "[9]", "value": 43, "unit": "%"}, {"measurement": "β-sheet content", "setting": "[9]", "value": 14, "unit": "%"}]}
